Source: patent publication US20260209316A1

Key:
[1] = target: mucin domain-deleted Sudan GP (GPdMuc) (Sudan virus (SUDV)) (UniProt Q7T9D9); test: BLI competition on Sudan GPdMuc (column in both tables); competitor mAb166
[2] = target: mucin domain-deleted Sudan GP (GPdMuc) (Sudan virus (SUDV)) (UniProt Q7T9D9); test: BLI competition on Sudan GPdMuc; competitor 16F6
[3] = target: mucin domain-deleted Sudan GP (GPdMuc) (Sudan virus (SUDV)) (UniProt Q7T9D9); test: BLI competition on Sudan GPdMuc (column in both tables); competitor 16F6
[4] = target: mucin domain-deleted Sudan GP (GPdMuc) (Sudan virus (SUDV)) (UniProt Q7T9D9); test: BLI competition on Sudan GPdMuc; competitor 316L
[5] = target: mucin domain-deleted Sudan GP (GPdMuc) (Sudan virus (SUDV)) (UniProt Q7T9D9); test: BLI competition on Sudan GPdMuc (column in both tables); competitor 15H10
[6] = target: mucin domain-deleted Sudan GP (GPdMuc) (Sudan virus (SUDV)) (UniProt Q7T9D9); test: BLI competition on Sudan GPdMuc; competitor 15H10
[7] = target: mucin domain-deleted Sudan GP (GPdMuc) (Sudan virus (SUDV)) (UniProt Q7T9D9); test: BLI competition on Sudan GPdMuc (column in both tables); competitor 316L
[8] = target: mucin domain-deleted Sudan GP (GPdMuc) (Sudan virus (SUDV)) (UniProt Q7T9D9); test: BLI competition on Sudan GPdMuc; competitor mAb166
[9] = target: mucin domain-deleted Zaire GP (GPdMuc) (Ebola (Zaire) virus (EBOV)) (UniProt Q05320); test: BLI competition on Zaire GPdMuc (upper table); competitor 380L
[10] = target: mucin domain-deleted Zaire GP (GPdMuc) (Ebola (Zaire) virus (EBOV)) (UniProt Q05320); test: BLI competition on Zaire GPdMuc (upper table); competitor 15H10
[11] = target: mucin domain-deleted Zaire GP (GPdMuc) (Ebola (Zaire) virus (EBOV)) (UniProt Q05320); test: BLI competition on Zaire GPdMuc (upper table); competitor mAb114
[12] = target: mucin domain-deleted Zaire GP (GPdMuc) (Ebola (Zaire) virus (EBOV)) (UniProt Q05320); test: BLI competition on Zaire GPdMuc (upper table); competitor KZ52 (self)
[13] = target: mucin domain-deleted Zaire GP (GPdMuc) (Ebola (Zaire) virus (EBOV)) (UniProt Q05320); test: BLI competition on Zaire GPdMuc (upper table); competitor 316L
[14] = target: mucin domain-deleted Zaire GP (GPdMuc) (Ebola (Zaire) virus (EBOV)) (UniProt Q05320); test: BLI competition on Zaire GPdMuc (upper table); competitor 13C6

Substance	% inhibition of binding [1]	% inhibition of binding [2]	% inhibition of binding [3]	% inhibition of binding [4]	% inhibition of binding [5]	% inhibition of binding [6]	% inhibition of binding [7]	% inhibition of binding [8]	% inhibition of binding [9]	% inhibition of binding [10]	% inhibition of binding [11]	% inhibition of binding [12]	% inhibition of binding [13]	% inhibition of binding [14]
HIV-specific antibody VRC01	-82.7%	31%	-7.53%	29.9%	-333%	-296%	20.6%	-43.1%	–	–	–	–	–	–
KZ52 (antibody)	–	–	–	–	–	–	–	–	10%	-1%	9%	96%	8%	13%
